Source: article PMC2919377, “A Nuclear Family A DNA Polymerase from Entamoeba histolytica Bypasses Thymine Glycol” (PLoS Neglected Tropical Diseases, 2010)

What was measured:
Experiment in all cases: purified protein
Assay type in all cases: biochemical, Entamoeba histolytica
Conditions in all cases: opposite cognate template base, primer-template DNA, optimised buffer (Mg2+ optimum 2.5 mM, pH optimum 7.5), 37 °C
purified protein [1] = substrate: Cc1cn([C@H]2C[C@H](O)[C@@H](COP(=O)(O)OP(=O)(O)OP(=O)(O)O)O2)c(=O)[nH]c1=O
purified protein [2] = substrate: Nc1ccn([C@H]2C[C@H](O)[C@@H](COP(=O)(O)OP(=O)(O)OP(=O)(O)O)O2)c(=O)n1
purified protein [3] = substrate: Nc1nc2c(ncn2[C@H]2C[C@H](O)[C@@H](COP(=O)(O)OP(=O)(O)OP(=O)(O)O)O2)c(=O)[nH]1
purified protein [4] = substrate: Nc1ncnc2c1ncn2[C@H]1C[C@H](O)[C@@H](COP(=O)(O)OP(=O)(O)OP(=O)(O)O)O1

B1: EhDNApolA (Entamoeba histolytica HM-1:IMSS) (protein)
chain: MEKTPRNSVDDLLMLFEDVKDNNKPVDYTKLESEETKKTENKERRKSLSINVNDEIPEKRKRKSIKQEGTPQPKVGAVFEIQYQHLPNKIDISELKELLEKIPKMEGKIMFNEKNLEQSIVINCTNNGIHALIGNSYVVLKKELLPEIINSRRLIIVYNLMEEIKNYRNNIKCILENFNTNNTIFDTYIGASTIDPGSVDGKTFSQICLVYEVIINKSTIEERLKQTRRLAVKEVEVMNNDNMIKVFQEQEMIIDGVLIEMNYCNEFKIDNKLLNEQRKKLIEEQHKIEMETKKIIGRTINLSSPEQVKKELIRFNIGIDGIKKKATTDKKILSQSDHPFAKLVLEYRKISKLLSGVIEQIRKCCIKSGDEYFIRTTWSQTAIVTGRIQSKSPNLQQIPKQSFSLPQCLIIPRDLFITHNNNTFVAIDYNQIELRILADFTKDHHLIEFFKSNTDVHRLIAAHWLKKNVNDITDDERRKAKTIVYGCIYGIGPFSLADQLHVSLDESKAFLESFLDQFPAFKKWKEETITNASTTGFVHTINNRRRRINNLTDCNDKKTVAESKRIAVNSPIQGTAADIIKMCMIEIFKKLHSSWVGVQLLLNIHDEIVLEVPDHLLDEVCVTLKHLMEHIVKLEVPLVVTVETGKKWGSLHPYNLN
notes: full-length ORF, 657 aa, about 75 kDa, N-terminal 6-His tag (pCOLD I), expressed in E. coli BL21 DE3-Rosetta II; Ni-NTA and phosphocellulose
For B1, the Km (purified protein [1]) was 1.49 ± 0.3 µM, the Vmax (purified protein [1]) was 0.0029 µmol/min and the Km (purified protein [2]) was 2.1 ± 0.3 µM. For the same protein, the Vmax (purified protein [2]) was 0.0032 µmol/min, the Km (purified protein [3]) was 1.56 ± 0.2 µM and the Vmax (purified protein [3]) was 0.0035 µmol/min. For the same protein, the Km (purified protein [4]) was 2.3 ± 0.2 µM and the Vmax (purified protein [4]) was 0.0033 µmol/min.
